Test results published in the nanobody polyreactivity screen of Harvey et al. (2022).

Experiment: yeast display, Sf9 membrane polyspecificity reagent, FACS + sequencing; frameworks hold sequencing errors
Summary of the method: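 A nanobody's polyreactivity label depends on the gate it was sorted from. Yeast display cells were stained with 10% biotinylated, detergent-solubilized Sf9 membrane reagent for 1 hour at 4 °C, enriched on streptavidin microbeads and sorted by FACS. The low and high (top ~1%) gates were set on anti-HA fluorescence for expression and streptavidin fluorescence for reagent binding.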

QVQLVESGGGLVQAGGSLRLSSAASGRIFRYYAMGWYSQAPGKERELVAAISWSGGNSYYADSVKGRFTISRDNAKNTVYLQMNSLKTEDTAVYYCNAYYLPSRYDYWGQGTQVTVSS
polyreactivity (PSR sort gate): high polyreactivity

QVQLVESGGGLVQAGGSLRLSCAASGSTFTINVMGWYRQAPGKERELVAAINGGGRTNYADSVKGRFTSSRDNAKNTVYLQMNSLKPEDTAVYYCAADGLSNVRQMDYWGQGTQVTVSS
polyreactivity (PSR sort gate): low polyreactivity

QVQLVESGGGLVQAGGSLRLSCAASGGIFVGNAMGWYRQAPGKERELVAAITYRGGRTYYADSVKGRFTISRDNAKNTVYLQMNSLKPEDTAVYYCNAYKQGGRSKYNYWGQGTQVTVSS
polyreactivity (PSR sort gate): high polyreactivity

QDQLVESGGGLVQAGGSLRLSCAASGRIISLYAMGWYRQAPVKERDLVAAISRRSGNTNYADSVKGRFTISRDNAKNTVYLQMNSLKPEDTAVYYCAARPGAISSTSPYDYWGQGTQVTVSS
polyreactivity (PSR sort gate): high polyreactivity

QDQLVESGGGLVQAGGSLRLSCAASGGTFSLYAKGWYRQAPGKEREFVAAISWRGTSTYYADSVKGRFTISRDNAKNTVYLQMNSLKPEDTAVYYCAARAWHEYGSWVQGTQVTVSS
polyreactivity (PSR sort gate): high polyreactivity

QVQLVESGGGIVQAGGSLRLSCAASGFIFVLYAMGWYRQAPGKERELVASISSTGSTYYADSVKGRFTISRENAKNTVYLQMNSLIPEDTAVYYCNLFVFDPEDFWGEGTQVTVSS
polyreactivity (PSR sort gate): low polyreactivity

QVQLVESGGGLVQAGGSLRLICASSGSILRYNTMVWYRQAPGKERELVAAITYRGGSTYYADSVKGRFTISRDNAKNTVYLQMNSLKPEDTAVYYCNAARWWKTPDDYWGQGNQVTVSS
polyreactivity (PSR sort gate): high polyreactivity

QVLLVESGGGLVQAGGSLRLSFAASGITFYGYDMGWYRQATGKERELVAAITSDGITNYADSVKGRFTISRDNAKNTVYLQMNSLKPEDTAVYYCAADVSFYRRYEWYYYWGQGTQVTVSS
polyreactivity (PSR sort gate): low polyreactivity

QVQLVESGGGLVQAGGSLSLSCAASGYTFSYYAMGWYRQAPGKERELVARITYSGGSTYYADSVKGRFTISRDNAKNTGYLQIKSLKPEDTAVYYCAARLRYPYWYYYWGQGTQVTVSS
polyreactivity (PSR sort gate): high polyreactivity

QVQLVESGGGLVQAGGSLRLSCAASGRISYAYAMGRYRQAPGKERELVAAISGSGGSTYYADSVKWRFTISRDNAKNTVYFQMNTLKPEDTAVYYCAAGSGEYYGGKRYYWGQGTQVTVSS
polyreactivity (PSR sort gate): low polyreactivity

QVHLVESGGGLVQAGGSLRLSCAAYGRIFTLNAMGWDRQAPGKERGWVARISRTGGSTYYADSVKGRFTISRDNAKNTVYLQMNSLKPEDTAVYYCAAAGFSRQPGAGAYYYWGQCTQVTVSS
polyreactivity (PSR sort gate): high polyreactivity

QVQLVESGGGLVQAGGSLRLRCAASGRTFRRNAMGWYRQAPGKERELVAGISWGGGSTYYADSVKGRFTISRDNAKNTVYLQMNSLKPEDTAVYYCAASGYFYRAYGYWGQGTQVTVSS
polyreactivity (PSR sort gate): high polyreactivity

QVQLVESGGGLVQAGGSLRLSCAASGITFTGYAMVWYRQAPGKERELVAAIRGGGNTYYADSVKGRFTISRDNAKNTVYLQMNSLKPEDTAVYYCAADDIAHQYFVSTVDVGMDYWGQGTQVTVSS
polyreactivity (PSR sort gate): low polyreactivity

QVQLVESGGGLVQAGGSLRFICAASGFLFRAYTMGWYRQAPGKERELVAAITSSGGRTYYADSVKGRFSISRDNAKNTVFLQMNSLKPEDTAVYYCATVYAKWKQFDSWGQGTQVNVSS
polyreactivity (PSR sort gate): high polyreactivity

QVQLVESGGGLVQAGGSLRLSCAASGSIFAINAMGWYRQAPGKERELVAAIRRRDGNTYYADSVKGRFTISRDNAKNSVYLQMNSLKPEDTAVYYCNTYSRRTSVIAYRYNYWGQGTQVTVSS
polyreactivity (PSR sort gate): high polyreactivity

KVQVVESGGGVVQAGGTLRLSCAASGSIAGNAMGWYRQAPGKERELVAAITFRGSGTYYADSVKGRFTISRDNAKNTVYLQINSLKPEDTAVYYCNAYRRGLSGYGYWGQGTQVTVSS
polyreactivity (PSR sort gate): high polyreactivity

QVQLVESGGGLVQAGGSLRLSCAASGLIFISYAMGWYRQAPGKERELVAAITRSAGTTYYADSVKGRFTISRDNAKNTVYLQMNSLKPEDTAVYYCNALYPITPEDYWGQGTQVTVSS
polyreactivity (PSR sort gate): low polyreactivity

QVQLVESGGGLVQAGGSLRLSCAASGSIFAPNAMGWYRQAPGKERELVAAITLSGGSRYYADSVKGRFTISREIAMNNVYLQMNSLKPEDTAVYYCNADLLPADAPLWVTGGDYWGQGTQVTVSS
polyreactivity (PSR sort gate): low polyreactivity

QVQLVESGGGLVQAGGSLRLSCAASGSIFYGYAMGWYRQAPGKERELVAAISWTGGRTYYADSVKGRFTISRDNAKNTVYLQMNSLKPEDTAVYYCNVRRYSVVSGGYWGQGTQVTVSS
polyreactivity (PSR sort gate): high polyreactivity

QVQLVESGGGLVQAGGSLRLSCAASGFTFAGYAMGWYRQAPGKERELVAAINRGGSTYYADSVKGRFTISRDNAKNTVYLQMNSLKPEDTAVYYCAKAQRFYGGRMGYWGQGTQVTVST
polyreactivity (PSR sort gate): low polyreactivity

QVQLVESGGGLVQAGGSLRLSCAASGSIFDVNAMGWYRPAPGKERELVAAISDSGGSTYYADSVKGRFTISRDNAKNTVYLQMNSLQPQDTAVYSCNADWSWYNYYDFDYWGQGTQVTVSS
polyreactivity (PSR sort gate): low polyreactivity

QVQLVESGGGLVQAGGSLRLSCAASGRTFKYYAMGWYRQAPGKERELVAGITSGSSTSYADSVKGRFTISRDNAKITVYLQMNSLKPEDTAVYFCAAGIYQYRYDYWGQGTQVTVSS
polyreactivity (PSR sort gate): high polyreactivity

QVKLVESGGGLVQAGGSLRLSCAASGRTFPRYAMGWYRQAPGKERELVAVIYGGGTYYADSVKGRFTISRDNAKNTVYLQMNSLKPEDTSVYYCNARSYQSARFRGGYWGQGTQVTVSS
polyreactivity (PSR sort gate): high polyreactivity

QVQLVESGGGLVQAGGSLRLICAASGLIFGPYAMGWYRQAPGKEREFVAAITRSDGSTYYADSVKGRFTISRDNAKNTVFLQMNSLNPEDTAVYYCNADAGYVWFGGAYYWPYDYWRQGTQVTVSS
polyreactivity (PSR sort gate): low polyreactivity

QVQLVESGGGLVQAGGSLRLSCAASGRIFRVYAMGWYRPAPGKERELVATIRRGSSTYYADSVKGRFTISRDNAKNTVYLQMNSLKPEDTAVYYCADRSSRRGPISEGDYWGQGTQVTVSS
polyreactivity (PSR sort gate): high polyreactivity

QVQLVESGGGLVQAGGSLRLSCAASGSTFIWYAMGWYRQAPGKERELVAAINRSGGSTYYADSVKGRFTISRDNAKNTVYLQMNSLKPEDTAVYYCAAQGGGYRGLKYYYWGQGTQVTVSS
polyreactivity (PSR sort gate): high polyreactivity

QVQLVESGGGLVQAGGSLRLSCAASGSTFYRYAMGWYRQAPGKERELVAAISQSGGRTYYADSVKGRFTISRDYAKNTVYLQMNSLKPEDTAVYYCAASWYYSLQRYGYWGQGTQVTVST
polyreactivity (PSR sort gate): high polyreactivity

QVQLVESGGGLVQAGGSLRLSCAASGTFYKYAMGWYRQAPGKERELVAAISWRGGRTYADSVKGRFKISRDNAKNTVYLQMNSLKPEDTAVYYCNKRFYPEHYYWGQGTQVTVSS
polyreactivity (PSR sort gate): high polyreactivity

QVQLVESGGGLVQAGGSLRLSCASSGRIFSGYAMGSYRQAPAKERELVATITSGGGTYYADSVKGRFTISRDNAKNTVYFQMNSLKPEDTAVYYCNAEKKGSFRKYNYWGQGTQVTVSS
polyreactivity (PSR sort gate): low polyreactivity

QVQLVESGGGLVQAGGSLRLSCAASGSILEIYAMGWYRQAPGKEREVVASISWDVSSTYYADSVKGRFTISRDNAKNTVYLQMNSLKPEDTAVYYCATSLVWGLYDWYYDLSAAFDYWGQGTQVTVSS
polyreactivity (PSR sort gate): low polyreactivity

QVQLQESGGGLVQAVGSLRLSCAASGNISDYYDMGWYRQAPGKERKFVAGIDFGAITNYADSVKGRFTISRDNAKNTEYLQMSSLKPEDTAVYYCAAGVYDWYAYDYWGQGTQVTVSS
polyreactivity (PSR sort gate): high polyreactivity

QVQLVESGGGLVQAGGSLRLSWAASGSISGFNAMGWYRQAPGKERELVAAISYSGGRTYYADSVKGRFTISRDNAKNNVYLHMNSLKPEDTAVFYCAADKFMYSKYTVFRDVYWGQGTQVTLSS
polyreactivity (PSR sort gate): high polyreactivity
